Results on one molecule are retold here after patent publication US20220401475A1 (Memorial Sloan Kettering, published 2022).

This test deals with T1, B-cell maturation antigen (BCMA) (human, UniProt Q02223 1-184).
T1 construct: whole, on cells
T1 sequence (looked up): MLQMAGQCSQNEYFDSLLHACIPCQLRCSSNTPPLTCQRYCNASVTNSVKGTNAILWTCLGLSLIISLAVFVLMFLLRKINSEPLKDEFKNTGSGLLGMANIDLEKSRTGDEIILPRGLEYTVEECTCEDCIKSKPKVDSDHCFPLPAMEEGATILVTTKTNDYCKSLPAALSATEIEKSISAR
Description: Flow cytometric trogocytosis assay: 1:1 co-culture of CAR T cells with KMS-12-BM for 0, 1, 2 and 4 h. BCMA loss from the tumour cells (upper panel) and BCMA gain on CAR T cells (lower panel). No concentration axis. (In general: A flow cytometer gives signals particle by particle.)

B1: 22-BBζ CAR (CD22-BBζ-DsRed, m971 CD22-specific scFv) (other)
chain: QVQLQQSGPGLVKPSQTLSLTCAISGDSVSSNSAAWNWIRQSPSRGLEWLGRTYYRSKWYNDYAVSVKSRITINPDTSKNQFSLQLNSVTPEDTAVYYCAREVTGDLEDAFDIWGQGTMVTVSSGGGGSDIQMTQSPSSLSASVGDRVTITCRASQTIWSYLNWYQQRPGKAPNLLIYAASSLQSGVPSRFSGRGSGTDFTLTISSLQAEDFATYYCQQSYSIPQTFGQGTKLEIKAAAPTTTPAPRPPTPAPTIASQPLSLRPEACRPAAGGAVHTRGLDFACDIYIWAPLAGTCGVLLLSLVITLYCNKRGRKKLLYIFKQPFMRPVQTTQEEDGCSCRFPEEEEGGCELRVKFSRSADAPAYQQGQNQLYNELNLGRREEYDVLDKRRGRDPEMGGKPRRKNPQEGLYNELQKDKMAEAYSEIGMKGERRRGKGHDGLYQGLSTATKDTYDALHMQALPPR
notes: Chimeric antigen receptor on human T cells
As to B1, the binding result is on record as “no binding”.
